In patent US20220009992A1 (FRED HUTCHINSON CANCER CENTER, published 2022):

Target: peptide #10 (from the gene EHF) presented on peptide-pulsed T2 target cells (human, UniProt P61769 21-119)
Assay: cell-based or functional assay

EC50 of peptide for IFN-γ production, ratio to the EC50 for Msln530: > 3000 fold (EC50 for peptide #10 over EC50 for Msln530)
B1: TCR Msln530-B11 (TCR, V domains shown)
V domain 1: ETGVTQSPTHLIKTRGQQVTLRCSSQSGHNTVSWYQQALGQGPQFIFQYYREEENGRGNFPPRFSGLQFPNYSSELNVNALELDDSALYLCASSFAGGRSDTQYFGPGTRLTVLE
V domain 2: KQEVTQIPAALSVPEGENLVLNCSFTDSAIYNLQWFRQDPGKGLTSLLLIQSSQREQTSGRLNASLDKSSGRSTLYIAASQPGDSATYLCAVRLLFAQGGSEKLVFGKGTKLTVNP
